# Legend:
# Assay in all cases: cell-based or functional assay
# [1] = target: Trypsin-like protease (TL1) from Fusarium oxysporum (Fusarium oxysporum) (UniProt P35049)
# bovine trypsin (bovine) = bovine trypsin (bovine) (UniProt P00760)
# [2] = target: porcine trypsin (porcine) (UniProt P00761)
# Sequence of UniProt P35049 (P35049 25-248 limits assumed): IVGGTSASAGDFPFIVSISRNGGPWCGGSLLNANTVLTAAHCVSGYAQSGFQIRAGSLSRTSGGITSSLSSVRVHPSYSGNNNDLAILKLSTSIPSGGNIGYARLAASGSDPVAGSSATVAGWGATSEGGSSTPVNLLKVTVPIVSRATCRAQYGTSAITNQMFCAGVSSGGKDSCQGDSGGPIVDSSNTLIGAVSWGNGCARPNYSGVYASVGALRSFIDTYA
substance,measurement,setting,value
"Bowman-Birk inhibitor (Cat # T-9777, Sigma-Aldrich) (from UniProt P01055 40-110)",% residual activity at 0.00048 mg/ml Bowman-Birk inhibitor,[1],117%
same,% residual activity at 0.00097 mg/ml Bowman-Birk inhibitor,[1],111%
same,% residual activity at 0.00195 mg/ml Bowman-Birk inhibitor,[1],103%
same,% residual activity at 0.0039 mg/ml Bowman-Birk inhibitor,[1],109%
same,% residual activity at 0.0078 mg/ml Bowman-Birk inhibitor,[1],82%
same,% residual activity at 0.0156 mg/ml Bowman-Birk inhibitor,[1],61%
same,% residual activity at 0.0313 mg/ml Bowman-Birk inhibitor,[1],32%
same,% residual activity at 0.0625 mg/ml Bowman-Birk inhibitor,[1],13%
same,% residual activity at 0.125 mg/ml Bowman-Birk inhibitor,[1],5.8%
same,% residual activity at 0.25 mg/ml Bowman-Birk inhibitor,[1],2.2%
same,% residual activity at 0.5 mg/ml Bowman-Birk inhibitor,[1],0.8%
same,% residual activity at 0.00048 mg/ml Bowman-Birk inhibitor,bovine trypsin (bovine),6.9%
same,% residual activity at 0.00097 mg/ml Bowman-Birk inhibitor,bovine trypsin (bovine),5.3%
same,% residual activity at 0.00195 mg/ml Bowman-Birk inhibitor,bovine trypsin (bovine),0.1%
same,% residual activity at 0.0039 mg/ml Bowman-Birk inhibitor,bovine trypsin (bovine),-0.4%
same,% residual activity at 0.0078 mg/ml Bowman-Birk inhibitor,bovine trypsin (bovine),0%
same,% residual activity at 0.0156 mg/ml Bowman-Birk inhibitor,bovine trypsin (bovine),-1.5%
same,% residual activity at 0.0313 mg/ml Bowman-Birk inhibitor,bovine trypsin (bovine),0.1%
same,% residual activity at 0.0625 mg/ml Bowman-Birk inhibitor,bovine trypsin (bovine),0%
same,% residual activity at 0.125 mg/ml Bowman-Birk inhibitor,bovine trypsin (bovine),0%
same,% residual activity at 0.25 mg/ml Bowman-Birk inhibitor,bovine trypsin (bovine),0%
same,% residual activity at 0.5 mg/ml Bowman-Birk inhibitor,bovine trypsin (bovine),0%
same,% residual activity at 0.00048 mg/ml Bowman-Birk inhibitor,[2],11%
same,% residual activity at 0.00097 mg/ml Bowman-Birk inhibitor,[2],9.4%
same,% residual activity at 0.00195 mg/ml Bowman-Birk inhibitor,[2],8.3%
same,% residual activity at 0.0039 mg/ml Bowman-Birk inhibitor,[2],6.2%
same,% residual activity at 0.0078 mg/ml Bowman-Birk inhibitor,[2],3.2%
same,% residual activity at 0.0156 mg/ml Bowman-Birk inhibitor,[2],2.2%
same,% residual activity at 0.0313 mg/ml Bowman-Birk inhibitor,[2],1%
same,% residual activity at 0.0625 mg/ml Bowman-Birk inhibitor,[2],6.4%
same,% residual activity at 0.125 mg/ml Bowman-Birk inhibitor,[2],0.2%
same,% residual activity at 0.25 mg/ml Bowman-Birk inhibitor,[2],0.1%
same,% residual activity at 0.5 mg/ml Bowman-Birk inhibitor,[2],0.1%
